Here are results for two substances from article PMC2270346.

The target of the test is mouse Wnt3a, His-tagged (mouse) (UniProt P27467).

A value given as a limit tells only on which side of the number the result lay.

Sequence of UniProt P27467 (P27467 19-352): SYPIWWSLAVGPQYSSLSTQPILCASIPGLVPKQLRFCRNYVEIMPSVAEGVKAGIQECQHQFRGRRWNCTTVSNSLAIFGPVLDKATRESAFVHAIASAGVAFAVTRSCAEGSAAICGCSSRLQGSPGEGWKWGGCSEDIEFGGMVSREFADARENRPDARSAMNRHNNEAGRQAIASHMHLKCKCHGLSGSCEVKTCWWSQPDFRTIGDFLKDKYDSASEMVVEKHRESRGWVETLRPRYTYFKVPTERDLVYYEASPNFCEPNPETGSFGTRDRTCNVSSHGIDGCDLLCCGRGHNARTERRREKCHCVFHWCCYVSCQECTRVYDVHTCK

Take “human V3Nter, V5-tagged (domain or fragment)”: the suppression of Wnt3a-induced beta-catenin-TCF-regulated transcription (SUPER8XTOPFLASH reporter) in HEK293T and Huh-7 cells cotransfected with Wnt3a is more than 80%. The substance “human FZC18 module, myc-tagged (domain or fragment)” registered a suppression of Wnt3a-induced beta-catenin-TCF-regulated transcription (SUPER8XTOPFLASH reporter) in HEK293T and Huh-7 cells cotransfected with Wnt3a of more than 80%.
